This is an account of results in article PMC10006238.

By Kd is commonly meant the constant that tells how readily two partners part at equilibrium. A high value points to a looser complex. For orientation: stoichiometry N means a count of units in the complex or per binding partner.

For experiment [1], the target named is VirC (Streptomyces virginiae). The experiment can be described thus: other fluorescence titration; tryptophan fluorescence quenching; VirC, VirD, VirD mutant or VirE at 5 μM in TE buffer (20 mM Tris-HCl pH 8.5, 2 mM EDTA), 25 °C, titrated with ACP ligand (0–150 μM); excitation 295 nm; one site-specific binding model; averaged data of two independent measurements.

The target of experiment [2] is VirD (Streptomyces virginiae). The experiment is described as above.
For experiment [3], the target named is VirE (Streptomyces virginiae). The experiment is described as above.
In experiment [4] the target is Se-VirD (Streptomyces virginiae). The experiment can be described thus: crystal structure; holo-ACP5b–Se-VirD complex, hanging drop, ratio 1:4, 100 mM calcium chloride, 30% PEG 1500, 10% 2-propanol, 100 mM imidazole-HCl pH 6.5; space group H3; 2.1 Å.
Experiment [5] has the same target. The experiment can be described thus: crystal structure; Se-VirD alone, 20% PEG 400, 20% PEG 800, 100 mM Tris-HCl pH 7.5; space group P4(1)2(1)2; Se-SAD, 1.7 Å.
In experiment [6] the target is VirD (Streptomyces virginiae). The experiment can be described thus: SAXS; SEC-coupled SAXS (SWING beamline, Bio-SEC 100 Å column), 15 °C, 20 mM Tris-HCl pH 8.5, 300 mM NaCl, 5% glycerol, 50 μL at 5 mg/mL; curves compared with crystal structures or models (CRYSOL, SASREF).
Experiment [7] concerns the target VirE (Streptomyces virginiae). Described as above.
The target in experiment [8] is VirD E128Q (Streptomyces virginiae). The experiment can be described thus: other fluorescence titration; tryptophan fluorescence quenching; VirC, VirD, VirD mutant or VirE at 5 μM in TE buffer (20 mM Tris-HCl pH 8.5, 2 mM EDTA), 25 °C, titrated with ACP ligand (0–150 μM); excitation 295 nm; one site-specific binding model; averaged data of two independent measurements.

For the molecule holo-Sna ACP7 (domain or fragment), the Kd in experiment [1] and in experiment [2] was 13 µM each time.

For “holo-ACP5a-ACP5b didomain (domain or fragment)”, the figures for the Kd in experiment [1], in experiment [2] and in experiment [3] were 17 µM, 19 µM and 42 µM, respectively.

For holo-ACP7 (domain or fragment), the Kd worked out at 18 µM in experiment [1], 4.3 µM in experiment [2] and 22 µM in experiment [3].

Regarding Se-VirD (enzyme), the stoichiometry N in experiment [4] and in experiment [5] was 3 each time.

For VirD (enzyme), the stoichiometry N in experiment [6] worked out at 3.

As to apo-ACP7 (domain or fragment), the Kd in experiment [1] turned out to be 75 µM; in experiment [2], 75 µM; in experiment [3], 301 µM.

VirE (enzyme) came in with a stoichiometry N in experiment [7] of 3.

In the case of apo-Sna ACP7 (domain or fragment), the Kd is 78 µM in experiment [1] and 166 µM in experiment [2].

B1: apo-ACP5a (domain or fragment)
chain: GPGSAGRQEEIAEEVARLLAGVLYLEPDRLDPEETFLTLGVDSILGVEFVAAVNAAYPVGVKATALYDHPTPAAFARHIAESLGA
On to B1, for which the values for the Kd in experiment [1], in experiment [2] and in experiment [3] were 166 µM, 102 µM and 653 µM, respectively.

B2: holo-ACP5a E6761A (domain or fragment)
chain: GPGSAGRQEEIAEEVARLLAGVLYLEPDRLDPEATFLTLGVDSILGVEFVAAVNAAYPVGVKATALYDHPTPAAFARHIAESLGA
modifications: phosphopantetheine (holo form)
For the molecule B2, the Kd in experiment [1] turned out to be 4.7 µM; in experiment [2], 6.1 µM.

B3: holo-ACP5a L6764N (domain or fragment)
chain: GPGSAGRQEEIAEEVARLLAGVLYLEPDRLDPEETFNTLGVDSILGVEFVAAVNAAYPVGVKATALYDHPTPAAFARHIAESLGA
modifications: phosphopantetheine (holo form)
On to B3, for which the Kd in experiment [1] worked out at 11 µM; in experiment [2], 4.1 µM.

B4: apo-ACP5a E6761A (domain or fragment)
chain: GPGSAGRQEEIAEEVARLLAGVLYLEPDRLDPEATFLTLGVDSILGVEFVAAVNAAYPVGVKATALYDHPTPAAFARHIAESLGA
Take B4: the figures for the Kd in experiment [1] and in experiment [2] were 108 µM and 186 µM, respectively.

B5: apo-ACP5a L6764N (domain or fragment)
chain: GPGSAGRQEEIAEEVARLLAGVLYLEPDRLDPEETFNTLGVDSILGVEFVAAVNAAYPVGVKATALYDHPTPAAFARHIAESLGA
Regarding B5, the Kd in experiment [1] was 89 µM; in experiment [2] it was 83 µM.

B6: HMG-ACP5a (domain or fragment)
chain: GPGSAGRQEEIAEEVARLLAGVLYLEPDRLDPEETFLTLGVDSILGVEFVAAVNAAYPVGVKATALYDHPTPAAFARHIAESLGA
modifications: HMG form ((RS)-3-hydroxy-3-methylglutarate as substrate mimic on the phosphopantetheine)
With B6, in experiment [2], the Kd stood at 51 µM.

B7: acetoacetyl-ACP5a (domain or fragment)
chain: GPGSAGRQEEIAEEVARLLAGVLYLEPDRLDPEETFLTLGVDSILGVEFVAAVNAAYPVGVKATALYDHPTPAAFARHIAESLGA
modifications: acetoacetyl form (acetoacetate as substrate mimic on the phosphopantetheine)
In experiment [1], B7 gave a Kd of 40 µM.

B8: holo-ACP5a E6761A/L6764N (domain or fragment)
chain: GPGSAGRQEEIAEEVARLLAGVLYLEPDRLDPEATFNTLGVDSILGVEFVAAVNAAYPVGVKATALYDHPTPAAFARHIAESLGA
modifications: phosphopantetheine (holo form)
Consider B8, for which the Kd in experiment [1] was 10 µM; in experiment [2], 7 µM.

B9: methylcrotonyl-ACP5a (domain or fragment)
chain: GPGSAGRQEEIAEEVARLLAGVLYLEPDRLDPEETFLTLGVDSILGVEFVAAVNAAYPVGVKATALYDHPTPAAFARHIAESLGA
modifications: methylcrotonyl form (3-methylcrotonate as substrate mimic on the phosphopantetheine)
In experiment [3], B9 had a Kd of 287 µM.

B10: apo-ACP5a E6761A/L6764N (domain or fragment)
chain: GPGSAGRQEEIAEEVARLLAGVLYLEPDRLDPEATFNTLGVDSILGVEFVAAVNAAYPVGVKATALYDHPTPAAFARHIAESLGA
For B10, the figures for the Kd in experiment [1] and in experiment [2] were 61 µM and 117 µM, respectively.

B11: acetoacetyl-ACP5b (domain or fragment)
chain: GPGSAVAVDPAPVARALREELARTLYCEPGDIDDEASFNTLGLDSILGVEFVAFVNQTYGLDEKAGILYDHPSLAALSRHVAGRAAPV
modifications: acetoacetyl form (acetoacetate as substrate mimic on the phosphopantetheine)
Turning to B11, in experiment [1], the Kd stood at 4.3 µM.

B12: methylcrotonyl-ACP5b (domain or fragment)
chain: GPGSAVAVDPAPVARALREELARTLYCEPGDIDDEASFNTLGLDSILGVEFVAFVNQTYGLDEKAGILYDHPSLAALSRHVAGRAAPV
modifications: methylcrotonyl form (3-methylcrotonate as substrate mimic on the phosphopantetheine)
B12: the Kd in experiment [3] was determined as 30 µM.

B13: holo-ACP5b (domain or fragment)
chain: GPGSAVAVDPAPVARALREELARTLYCEPGDIDDEASFNTLGLDSILGVEFVAFVNQTYGLDEKAGILYDHPSLAALSRHVAGRAAPV
modifications: phosphopantetheine (Ppant) on S6871
For B13, the Kd was determined as 3.8 µM in experiment [1], 2.9 µM in experiment [2] and 6.8 µM in experiment [3].

B14: apo-ACP5b (domain or fragment)
chain: GPGSAVAVDPAPVARALREELARTLYCEPGDIDDEASFNTLGLDSILGVEFVAFVNQTYGLDEKAGILYDHPSLAALSRHVAGRAAPV
With B14, the figures for the Kd in experiment [1], in experiment [2] and in experiment [3] were 77 µM, 178 µM and 171 µM, respectively.

B15: HMG-ACP5b (domain or fragment)
chain: GPGSAVAVDPAPVARALREELARTLYCEPGDIDDEASFNTLGLDSILGVEFVAFVNQTYGLDEKAGILYDHPSLAALSRHVAGRAAPV
modifications: HMG form ((RS)-3-hydroxy-3-methylglutarate as substrate mimic on the phosphopantetheine)
B15: the Kd in experiment [8] came out at 33 µM; in experiment [2] it was 39 µM.
